Measurements: FireProtDB (doi:10.1021/bi00017a003)

B1: Subtilisin-chymotrypsin inhibitor-2A, P01053 (parent)
chain: MSSVEKKPEGVNTGAGDRHNLKTEWPELVGKSVEEAKKVILQDKPEAQIIVLPVGTIVTMEYRIDRVRLFVDKLDNIAQVPRVG

Variants of: B1
Settings: Hordeum vulgare; pH 6.3; 25 °C; GdnHCl; Fluorescence; MES 50 mM; structure 2CI2; whole UniProt chain shown

Row | Variant | ddG of mutation (higher = less stable) [kcal/mol] | denaturant m value [kcal/mol/M] | denaturant midpoint (higher = more stable) [M]
1 | V54G | 2.43 | 2 | 2.75
2 | V54T | 1.03 | 1.65 | 3.47
3 | V80T | 0.38 | 1.63 | 3.8
4 | V80G | 3.24 | 2.61 | 2.33
5 | V80A | 1.51 | 1.92 | 3.22
6 | T23G | 1.16 | 1.95 | 3.4
7 | T23A | 0.85 | 1.83 | 3.56
8 | T23V | 0.32 | 1.67 | 3.83
9 | V83G | 3.5 | 2.1 | 2.2
10 | V83A | 1.45 | 1.95 | 3.25
11 | V83T | 1.15 | 1.79 | 3.41
12 | A78G | 1.88 | 2.19 | 3.03
13 | I50A | 2.12 | 2.22 | 3.91
14 | I50G | 3.52 | 2.13 | 2.19
15 | I50V | -0.08 | 1.77 | 4.04
